Our source for the protein stability index values is the supplement of paper PMC10567573.

B1: GMCL1 (parent)
chain: RPDTGDDAAGHGFCYCAGSHKRKR
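Note: lentivirally expressed fusions sorted by FACS into six bins by GFP to DsRed ratio, PSI derived from sequencing read proportions per bin multiplied by bin number.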

The variants in the data set derive from B1. Briefly: protein stability index of a GFP-peptide fusion (GPS, HEK-293T) (PSI 1-6); higher = more stable. As to conditions: c terminus: a fixed tail appended.
Turning to RPSTGDDAAGHGFCYCAGSHKRKR, the protein stability index was found to be 3.14.
In the case of RPWTGDDAAGHGFCYCAGSHKRKR, the protein stability index stood at 3.04.
Regarding RPMTGDDAAGHGFCYCAGSHKRKR, the protein stability index is 2.3.
As for RPVTGDDAAGHGFCYCAGSHKRKR, the protein stability index turned out to be 3.91.
For the variant RPQTGDDAAGHGFCYCAGSHKRKR, the protein stability index turned out to be 2.51.
With RPKTGDDAAGHGFCYCAGSHKRKR the figure was 3.62; with RPITGDDAAGHGFCYCAGSHKRKR, 3.29.
For the variant RPTTGDDAAGHGFCYCAGSHKRKR, the protein stability index worked out at 2.86.
With RPRTGDDAAGHGFCYCAGSHKRKR the figure was 3.19; with RPGTGDDAAGHGFCYCAGSHKRKR, 2.19; with RPPTGDDAAGHGFCYCAGSHKRKR, 3.64.
Turning to RPLTGDDAAGHGFCYCAGSHKRKR, the protein stability index turned out to be 3.14.
With RPHTGDDAAGHGFCYCAGSHKRKR the figure was 3.4; with RPNTGDDAAGHGFCYCAGSHKRKR, 3.31; with RPYTGDDAAGHGFCYCAGSHKRKR, 3.15.
With RPDTGDDAAWHGFCYCAGSHKRKR the figure was 2.84; with RPDTGDDAAAHGFCYCAGSHKRKR, 2.86.
Under RPDTGDDAAHHGFCYCAGSHKRKR stands 3.1; under RPDTGDDAAVHGFCYCAGSHKRKR, 3.49.
Take RPDTGDDAATHGFCYCAGSHKRKR: the protein stability index worked out at 3.18.
Under RPDTGDDAAQHGFCYCAGSHKRKR stands 3.36; under RPDTGDDAAMHGFCYCAGSHKRKR, 3.2.
Under RPDTGDDAAYHGFCYCAGSHKRKR stands 2.91.
For RPDTGDDAADHGFCYCAGSHKRKR, the protein stability index was 3.37.
Under RPDTGDDAAIHGFCYCAGSHKRKR stands 2.71; under RPDTGDDAAPHGFCYCAGSHKRKR, 2.73.
On to RPDTGDDAARHGFCYCAGSHKRKR, for which the protein stability index came out at 2.81.
RPDTGDDAACHGFCYCAGSHKRKR: the protein stability index was determined as 2.78.
As for RPDTGDDAANHGFCYCAGSHKRKR, the protein stability index is 3.71.
As for RPDTGDDAAFHGFCYCAGSHKRKR, the protein stability index came to 2.9.
Consider RPDTGDDAASHGFCYCAGSHKRKR, for which the protein stability index is 2.95.
Under RPDTGDDAAEHGFCYCAGSHKRKR stands 3.14; under RPDTGDDAAKHGFCYCAGSHKRKR, 3.22.
With RPDTGDDAALHGFCYCAGSHKRKR, the protein stability index worked out at 2.36.
For the variant RPDTGDDAAGWGFCYCAGSHKRKR, the protein stability index stood at 2.95.
Take RPDTGDDAAGCGFCYCAGSHKRKR: the protein stability index was determined as 2.47.
With RPDTGDDAAGIGFCYCAGSHKRKR the figure was 3.26.
On to RPDTGDDAAGLGFCYCAGSHKRKR, for which the protein stability index was 3.14.
With RPDTGDDAAGYGFCYCAGSHKRKR the figure was 2.84.
Under RPDTGDDAAGDGFCYCAGSHKRKR stands 3.45; under RPDTGDDAAGSGFCYCAGSHKRKR, 3.24.
On to RPDTGDDAAGEGFCYCAGSHKRKR, for which the protein stability index stood at 3.49.
Turning to RPDTGDDAAGRGFCYCAGSHKRKR, the protein stability index stood at 3.43.
For RPDTGDDAAGGGFCYCAGSHKRKR, the protein stability index is 3.18.
With RPDTGDDAAGQGFCYCAGSHKRKR the figure was 3.22; with RPDTGDDAAGTGFCYCAGSHKRKR, 4.18; with RPDTGDDAAGPGFCYCAGSHKRKR, 3.21.
As for RPDTGDDAAGFGFCYCAGSHKRKR, the protein stability index came to 3.27.
With RPDTGDDAAGAGFCYCAGSHKRKR the figure was 3.64; with RPDTGDDAAGMGFCYCAGSHKRKR, 3.15; with RPDTGDDAAGVGFCYCAGSHKRKR, 2.75.
Under RPDTGDDAAGNGFCYCAGSHKRKR stands 2.32.
Under RPDTGDDAAGKGFCYCAGSHKRKR stands 3.16.
RPDTRDDAAGHGFCYCAGSHKRKR: the protein stability index was found to be 3.15.
Under RPDTADDAAGHGFCYCAGSHKRKR stands 3.37; under RPDTTDDAAGHGFCYCAGSHKRKR, 2.97.
In the case of RPDTIDDAAGHGFCYCAGSHKRKR, the protein stability index is 3.28.
With RPDTQDDAAGHGFCYCAGSHKRKR, the protein stability index was found to be 2.87.
Under RPDTYDDAAGHGFCYCAGSHKRKR stands 3.27; under RPDTKDDAAGHGFCYCAGSHKRKR, 3.45.
Regarding RPDTDDDAAGHGFCYCAGSHKRKR, the protein stability index was found to be 2.89.
RPDTSDDAAGHGFCYCAGSHKRKR: the protein stability index amounted to 3.5.
In the case of RPDTLDDAAGHGFCYCAGSHKRKR, the protein stability index turned out to be 3.1.
Under RPDTPDDAAGHGFCYCAGSHKRKR stands 3.48; under RPDTFDDAAGHGFCYCAGSHKRKR, 2.59; under RPDTEDDAAGHGFCYCAGSHKRKR, 2.93.
As for RPDTCDDAAGHGFCYCAGSHKRKR, the protein stability index is 3.63.
Regarding RPDTHDDAAGHGFCYCAGSHKRKR, the protein stability index is 2.48.
Under RPDTNDDAAGHGFCYCAGSHKRKR stands 3.17.
Regarding RPDTWDDAAGHGFCYCAGSHKRKR, the protein stability index turned out to be 2.59.
With RPDTVDDAAGHGFCYCAGSHKRKR the figure was 2.99.
Under RPDTMDDAAGHGFCYCAGSHKRKR stands 2.84.
With RPDTGDDQAGHGFCYCAGSHKRKR the figure was 3.16; with RPDTGDDRAGHGFCYCAGSHKRKR, 3.08; with RPDTGDDCAGHGFCYCAGSHKRKR, 3.23.
Turning to RPDTGDDDAGHGFCYCAGSHKRKR, the protein stability index was found to be 2.97.
Regarding RPDTGDDMAGHGFCYCAGSHKRKR, the protein stability index came to 2.85.
Under RPDTGDDLAGHGFCYCAGSHKRKR stands 2.36; under RPDTGDDIAGHGFCYCAGSHKRKR, 3.06; under RPDTGDDYAGHGFCYCAGSHKRKR, 2.61.
With RPDTGDDVAGHGFCYCAGSHKRKR the figure was 3.18; with RPDTGDDPAGHGFCYCAGSHKRKR, 3.09; with RPDTGDDTAGHGFCYCAGSHKRKR, 2.73.
Under RPDTGDDFAGHGFCYCAGSHKRKR stands 2.61.
Take RPDTGDDEAGHGFCYCAGSHKRKR: the protein stability index came out at 3.26.
For the variant RPDTGDDSAGHGFCYCAGSHKRKR, the protein stability index amounted to 3.72.
Under RPDTGDDWAGHGFCYCAGSHKRKR stands 3.38.
For the variant RPDTGDDKAGHGFCYCAGSHKRKR, the protein stability index came to 2.94.
For RPDTGDDHAGHGFCYCAGSHKRKR, the protein stability index turned out to be 3.61.
On to RPDTGDDNAGHGFCYCAGSHKRKR, for which the protein stability index came to 2.96.
Under RPDTGDDGAGHGFCYCAGSHKRKR stands 3.11; under RPDYGDDAAGHGFCYCAGSHKRKR, 2.87.
With RPDGGDDAAGHGFCYCAGSHKRKR, the protein stability index came to 3.93.
With RPDRGDDAAGHGFCYCAGSHKRKR, the protein stability index amounted to 3.6.
